In publication PMC7331476:

Biological target: recombinant PD-L1, His tagged (human, UniProt Q9NZQ7 19-239)
Assay: pull-down

recombinant PD-L1, His tagged, sequence (Q9NZQ7 19-239): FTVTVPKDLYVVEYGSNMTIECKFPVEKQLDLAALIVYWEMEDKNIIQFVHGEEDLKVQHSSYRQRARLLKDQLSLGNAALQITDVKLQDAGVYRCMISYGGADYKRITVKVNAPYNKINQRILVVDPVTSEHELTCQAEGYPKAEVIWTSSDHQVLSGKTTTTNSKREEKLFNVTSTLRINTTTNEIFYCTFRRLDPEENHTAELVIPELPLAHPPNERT

B1: XQ-P3 biotinylated (ssDNA)
DNA: ACCGACCGTGCTGGACTCATCTCGCTTTTTTCACGGTCCACACTACTATGAGCGAGCCTGGCG
modifications: biotin
Question: Does B1 bind?
Answer: Result: binds
